From US12636342B2, “TARS derived from Akkermansia muciniphila or fragment thereof, and use thereof” (KOREA RESEARCH INSTITUTE OF BIOSCIENCE AND BIOTECHNOLOGY, priority 2020, dated 2026) come the findings set out here.

Series [1] has as its system mouse bone marrow-derived macrophages (BMDMs). The experiment in a line: ELISA of immune cytokine secretion in BMDMs under normal conditions. Type of series: cell-based. Particulars: normal (non-inflammatory) conditions, 24 h. As to the method: Specifically, mouse bone marrow-derived macrophages (BMDMs) as mouse-derived immune cells were extracted from the mouse thighbone and shinbone, and then cultured in DMEM containing 10% fetal bovine serum (FBS) and antibiotics. Human macrophages (THP1) as human-derived immune cells were cultured in RPMI media containing 10% FBS and antibiotics.
The cultured cells were treated with AmTARS at 0.1 μM, 0.2 μM, and 0.5 μM for 24 h to obtain cell cultures. For cell removal, the media were centrifuged at 500×g for 10 min to obtain supernatants, which were then analyzed using an ELISA set (mouse interleukin (IL)-6, mouse IL-10, mouse tumor necrosis factor (TNF)-α, human IL-6, human IL-10, human TNF-α; BD Biosciences) to investigate the secretion of mouse- and human-derived immune cytokines. […]

Another series concerns Raw 264.7 cells. The experiment in a line: ELISA of immune cytokine secretion in LPS-treated Raw 264.7 cells. Type of series: cell-based, mouse. Particulars: Raw 264.7, LPS, 24 h. As to the method:
Next, to determine whether the regulation of immune cytokine secretion by AmTARS in an inflammatory environment was induced by the two functional sites, the mouse-derived immune cell Raw 264.7 cells were treated with LPS to induce an immune response by the method as in Example 3, and treated with AmTARS, ΔU1AmTARS, and ΔU2AmTARS for 24 h separately to obtain cell cultures. The obtained cell cultures were analyzed for Immune cytokine secretion by way of the same method as in Example 2.
In general terms: In an ELISA, binding on a coated surface is turned into a signal by an enzyme label.

The nature of series [2]: Aminoacylation reaction (malachite green phosphate assay). In kind it is biochemical. Particulars: L-threonine, ATP, 30 min, free Pi at 620 nm. The method, then:
TARS is an […] involved in protein synthesis, and the domain and site involved in its function are well known. The constructed deletion mutants were confirmed to have deletions of parts irrelevant to the function, but the aminoacylation reaction experiment was conducted to determine whether the deletion mutants performed the intrinsic functions thereof appropriately.
Specifically, a 2× reaction solution (100 mM Tris-HCl (pH 7.5), 20 mM MgCl2, 200 mM NaCl, 200 mM KCl, 2 mM DTT, 500 μM ATP, and 5 mM L-threonine) was prepared, and 25 μL of a reaction solution, 20 μL of distilled water, and 5 μL of protein were added to make a final 50 μL volume, followed by incubation for 30 min. Thereafter, a reaction was conducted using a malachite green phosphate assay kit (Bioassay Systems) for 30 min, and the free monophosphate group (Pi) was measured at a wavelength of 620 nm.

The test system of series [3] is mouse model of dextran sulfate sodium (DSS)-induced colitis. The experiment in a line: DSS-induced colitis (inflammatory bowel disease) mouse model, intraperitoneal administration. Type of series: in vivo. Particulars: inflammatory bowel disease mouse model; for distribution of B cells in the colon: normal mice. As to the method:
We evaluated the anti-inflammatory function of AmTARS in a mouse model of dextran sulfate sodium (DSS)-induced colitis. First, we assessed dose-dependent responses (i.e., changes in body weight and colon length) to intraperitoneal (i.p.) administration of AmTARS (0.05-0.4 mg/kg) once every other day for 10 days (FIG. 10A).
The disease activity score was calculated by adding up scores ranging from 0 to 4 points for each item of bloody stool, diarrhea, and weight loss, and the epithelial damage score was calculated by assigning 0 to 4 points according to the degree of colon tissue damage.
Next, to measure IgA, mouse feces were collected and diluted in PBS containing a protein inhibitor, and then a supernatant with impurities removed was obtained, and 100 μL was placed in each well of a 96-well plate to perform protein coating at 4° C. for 2 h. The plate was washed three times with a washing solution (50 mM Tris, 0.2% in PBS) and then incubated with 100 μL of blocking solution at room temperature for 1-2 h, followed by washing. HRP conjugated IgA antibody (1:30000) was added and then incubated at room temperature for 1 h, followed by washing. Thereafter, 100 μL of a substrate solution was added, followed by incubation for 30 min, and then 50 μL of a stop solution was added, followed by measurement at 405-450 nm by an ELISA reader. […]

“Also recorded” adds a separate entry of the source.

B1: ΔU2AmTARS: AmTARS mutant with deletion of unique region U2 (residues 290-312); construct SEQ ID NO 8 (protein)
chain: MSEHKERKTLEERQQMSDLERLRHSCAHVLATAICRLWPDAQLAGGPAVDNGFYYDVELDHRISTEDFERIEEEMKKVVKENQVFQKEVISRADAMKMAESGELGALGPRSEPSRFKIDLLNDIPEDEEISLYRNGDFTDLCAGPHVGRTGNCKAFKIMSVASAFYKGDKNRPMLQRIYGTCFPNRTQLDEHLERLEEARRRDHRKLGRELGLFCIDESVGQGLILWKPKGALIRRSLQDFITEELDKLGYSQVYTPNIGKLDLYRTSGHFPYYQESQYAPIPERDAMEYMLKPMNCPHHIKIYANDAHSYRDLPVRLAEFGTVYRWEQSGELGGMTRVRGFTQDDAHIFCTPDQLAGEIRQCLGIVKTIFGTLGMTDYRVRLSMRDPESDKYVGSPENWDKAEQALREAAEWLGADYSEEAGEAAFYGPKIDFIVRDAIGREWQLGTVQVDYNLPERFDLHYTGADNKPHRPVMVHRAPFGSMERFTGLLIEHFEGKFPTWLSPEQVRVLPISDKVTDVAAAHRTALAARGVRVTVDETPDKIGAKIRNARLDRVPYMLVLGQREAEDGTVSVRHRDKGDLGAMPFEQFADLVAREIAERHISPVI
modifications: misc_feature 1..1824 Akkermansia muciniphila TARS_del_Functional region 2
For B1, the “secretion/production of IL-10” value in series [1] was “abolished the IL-10 production”. In the series with Raw 264.7 cells, the “secretion of IL-6” value is reported as “no effect”, the “secretion of IL-10” value is given as “no effect” and the “secretion of TNF-α” value is listed as “no effect”. Besides, the “aminoacylation reaction / enzymatic activity” value in series [2] is “an aminoacylation reaction was shown; also recorded: Neither mutant protein was different from the wild-type”. In series [3], the “amount of IgG increased by an inflammatory bowel disease” value is “did not show an effect of reducing the amount of IgG” and the “distribution of B cells in the colon” value is given as “reduced the efficacy of increasing B cells in the colon”.

B2: ΔU1AmTARS: AmTARS mutant with deletion of unique region U1 (residues 99-113); construct SEQ ID NO 7 (protein)
chain: MSEHKERKTLEERQQMSDLERLRHSCAHVLATAICRLWPDAQLAGGPAVDNGFYYDVELDHRISTEDFERIEEEMKKVVKENQVFQKEVISRADAMKMSRFKIDLLNDIPEDEEISLYRNGDFTDLCAGPHVGRTGNCKAFKIMSVASAFYKGDKNRPMLQRIYGTCFPNRTQLDEHLERLEEARRRDHRKLGRELGLFCIDESVGQGLILWKPKGALIRRSLQDFITEELDKLGYSQVYTPNIGKLDLYRTSGHFPYYQESQYAPIPERDAMEKLSQEGASCAELFNGLATGTIEGYMLKPMNCPHHIKIYANDAHSYRDLPVRLAEFGTVYRWEQSGELGGMTRVRGFTQDDAHIFCTPDQLAGEIRQCLGIVKTIFGTLGMTDYRVRLSMRDPESDKYVGSPENWDKAEQALREAAEWLGADYSEEAGEAAFYGPKIDFIVRDAIGREWQLGTVQVDYNLPERFDLHYTGADNKPHRPVMVHRAPFGSMERFTGLLIEHFEGKFPTWLSPEQVRVLPISDKVTDVAAAHRTALAARGVRVTVDETPDKIGAKIRNARLDRVPYMLVLGQREAEDGTVSVRHRDKGDLGAMPFEQFADLVAREIAERHISPVI
modifications: misc_feature 1..1848 Akkermansia muciniphila TARS_del_Functional region 1
With B2, the “secretion/production of IL-10” value in series [1] is reported as “abolished the IL-10 production”. In the series on Raw 264.7 cells, the “secretion of IL-6” value was “no effect”, the “secretion of IL-10” value is given as “no effect” and the “secretion of TNF-α” value was “no effect”. Besides, the “aminoacylation reaction / enzymatic activity” value in series [2] is “an aminoacylation reaction was shown; also recorded: Neither mutant protein was different from the wild-type”. For the same molecule, in series [3], the “amount of IgG increased by an inflammatory bowel disease” value was “did not show an effect of reducing the amount of IgG” and the “distribution of B cells in the colon” value is on record as “reduced the efficacy of increasing B cells in the colon”.
